Assay results published in patent US20140295512A1, “Ketol-Acid Reductoisomerases With Improved Performance Properties” (CALIFORNIA INSTITUTE OF TECHNOLOGY, priority 2011, published 2014).

Key:
Format in all cases: biochemical
[1] = KARI assay of purified S. exigua KARI and variants with NADH (Examples 6-9); conditions: for Ratio NADH/NADPH (U/mg): specific activity ratio
Procedure: (§1) S. exigua KARI activity or activities of its variants were assayed kinetically by monitoring the decrease in NADPH or NADH concentration by measuring the change in absorbance at 340 nm. An assay buffer was prepared containing 100 mM potassium phosphate pH 7.0, 1 mM DTT, 2.5 mM (S)-2-acetolactate, and 10 mM MgCl2 (final concentrations in the 1-mL assay, accounting for dilution with enzyme and cofactor). Fifty μL purified enzyme and 930 μL of the assay buffer were placed into a 1-mL cuvette. The reaction was initiated by addition of 20 μL NADPH or NADH (200 μM final concentration) for a general activity assay. Michaelis-Menten constants of the cofactors were determined with varying concentrations of NADPH (200-12 μM final) or NADH (200-6 μM final).

[2] = High-throughput screening of KARI variant libraries in E. coli lysates
Procedure: For growth and expression of KARI variants in deep well plates, sterile toothpicks were used to pick single colonies into shallow 96-well plates filled with 300 μL LBamp. Fifty μL of these overnight cultures were used to inoculate deep well plates filled with 600 μL of LBamp per well. The plates were grown at 37° C. with shaking at 250 rpm for 3 h. One hour before induction with IPTG (final concentration 0.5 mM), the temperature of the incubator was reduced to 25° C. After induction, growth and expression continued for 20 h at 25° C. and 250 rpm. Cells were harvested at 5,300 g and 4° C. and then stored at −20=C. The plates always contained four wild-type or parent S. exigua KARI colonies, three BL21(DE3) colonies carrying pET22b(+) to control for background reactions in cell lysates, and one well that contained only media to make sure the plates were free of contaminations.
Frozen cell pellets were thawed at room temperature for 20 min and then 200 μL of lysis buffer (100 mM Kpi, 750 mg/L lysozyme, 10 mg/L DNaseI, pH 7) were added. Plates were vortexed to resuspend the cell pellets. After a 60 min incubation phase at 37° C. and shaking at 130 rpm, plates were centrifuged at 5,300 g and 4° C. for 10 min. […] The depletion of NAD(P)H was monitored at 340 nm in a plate reader (TECAN) over 200 s.

[3] = KARI assay of purified S. exigua KARI and variants with NADPH (Examples 6-9)
Procedure: as §1

B1: Se1_KARI^4E10: S. exigua KARI variant L57V, R58P, S61C (protein, UniProt D0WGK0 1-342, looked up, variant L57V R58P S61C)
Ketol-acid reductoisomerase …: MSVKTKEKEMAVTILYEQDVDPKVIQGLKVGIIGYGSQGHAHALNLMDSGVDVRVGVPEGCSSWKTAEEAGLKVTDMDTAAEEADVIMVLVPDEIQPKVYQEHIAAHLKAGNTLAFAHGFNIHYGYIVPPEDVNVIMCAPKGPGHIVRRQFTEGSGVPDLACVQQDATGNAWDIVLSYCWGVGGARSGIIKATFAEETEEDLFGEQAVLCGGLVELVKAGFETLTEAGYPPELAYFECYHEMKMIVDLMYESGIHFMNYSISNTAEYGEYYAGPKVINEQSREAMKEILKRIQDGSFAQEFVDDCNNGHKRLLEQREAINTHPIETTGAQIRSMFSWIKKED
In the case of B1, the “kcat NADH” value [1] is reported as 0.90 s⁻¹, the “kcat/Km ratio NADH/NADPH (cofactor specificity)” value [1] is reported as 0.1 and the “U/mg NADH (specific activity)” value ([1]; cofactor NADH) is reported as 0.36 U/mg. The Km ([1]; read-out: Km for cofactor NADH) was 49 µM, the “Ratio NADH/NADPH (U/mg)” value [1] was 1.0 and the “Ratio NADH/NADPH (U/mg)” value ([1]; listed as 4E10) was 1. The “NADH/NADPH activity ratio in the screen/rescreen relative to parent” value [2] was “more than doubled”, the “kcat NADPH” value [3] was 0.90 s⁻¹ and the “U/mg NADPH (specific activity)” value ([3]; cofactor NADPH) was 0.36 U/mg. For the same molecule, the Km ([3]; read-out: Km for cofactor NADPH) was 4 µM.
